The values that follow come from article PMC2064615.

This assay concerns the target taxol-stabilized microtubules polymerized from tubulin purified from bovine brain (bovine). Put plainly: co-sedimentation.

B1: His-tagged recombinant emerin peptide corresponding to aa 73–180 (domain or fragment)
chain: MYDLPKKEDALLYQSKGYNDDYYEESYFTTRTYGEPESAGPSRAVRQSVTSFPDADAFHHQVHDDDLLSSSEEECKDRERPMYGRDSAYQSITHYRPVSASRSSLDLS
B1 gave a stoichiometry N (tubulin heterodimers per emerin) of 24.

B2: emerin peptide aa 1–176 (most of the nucleoplasmic domain) (domain or fragment)
chain: MDNYADLSDTELTTLLRRYNIPHGPVVGSTRRLYEKKIFEYETQRRRLSPPSSSAASSYSFSDLNSTRGDADMYDLPKKEDALLYQSKGYNDDYYEESYFTTRTYGEPESAGPSRAVRQSVTSFPDADAFHHQVHDDDLLSSSEEECKDRERPMYGRDSAYQSITHYRPVSASRSS
For the molecule B2, the stoichiometry N (tubulin heterodimers per emerin) amounted to 8.
